Assay results published in US9309288B2, “Selective αvβ3 receptor peptide antagonist for therapeutic and diagnostic applications” (ADVANCED ACCELERATOR APPLICATIONS, priority 2005, dated 2016).

Biological target: αvβ3 (Homo sapiens, UniProt P05106+P06756)
Assay: Cell adhesion assay, αvβ3 overexpressing K562 cells (Kαvβ3) on vitronectin
Type: cell-based
Set-up: expressed in transfected cells; host or cells: K562 (human erythroleukemia), gift of Dr. S. D. Blystone
Conditions: 10 μM peptide
Method: Cell Adhesion and Competitive Assay: Human erythroleukemia K562 cells, stably cotransfected with cDNA of αv or αIIb subunit and β3 or β5 subunits, were kindly provided by Dr. S. D. Blystone (SUNY Upstate Medical University, Syracuse, N.Y.). Cells were maintained in Iscove's Modified Dubecco's Medium (IMDM) supplemented with 10% heat-inactivated fetal bovine serum, 100 IU/ml penicillin, 50 μg/mL streptomycin and 500 μg/mL G418 in a humidified incubator with 5% CO2 at 37° C. […] Cells were used to determine affinity for αvβ3 and cross-reactivity with αvβ5 and αIIbβ3 integrin.
Briefly, 24-well flat-bottom plates were incubated overnight with 5 μg/mL vitronectin. The pre-coated plates were rinsed with PBS, incubated for 1 h at 23° C. with 1% heat-denatured bovine serum albumin, and rinsed again. Then, αvβ3 overexpressing K562 cells were incubated with various concentrations of cyclic RGD peptides or diluents for 1 h at 4° C. Peptide-treated cells (0.2-0.5×106/100 μL/well) were seeded onto pre-coated plates and allowed to adhere for 1 h at 37° C. in 5% CO2. Non-adherent cells were removed with gentle washing, whereas adherent cells were detached by trypsinization and counted. Three different adhesion assays were performed in duplicates.
All synthesized peptides were tested for their ability to inhibit cell adhesion to vitronectin. […]

αvβ3, sequence (P06756 31-889 limits assumed): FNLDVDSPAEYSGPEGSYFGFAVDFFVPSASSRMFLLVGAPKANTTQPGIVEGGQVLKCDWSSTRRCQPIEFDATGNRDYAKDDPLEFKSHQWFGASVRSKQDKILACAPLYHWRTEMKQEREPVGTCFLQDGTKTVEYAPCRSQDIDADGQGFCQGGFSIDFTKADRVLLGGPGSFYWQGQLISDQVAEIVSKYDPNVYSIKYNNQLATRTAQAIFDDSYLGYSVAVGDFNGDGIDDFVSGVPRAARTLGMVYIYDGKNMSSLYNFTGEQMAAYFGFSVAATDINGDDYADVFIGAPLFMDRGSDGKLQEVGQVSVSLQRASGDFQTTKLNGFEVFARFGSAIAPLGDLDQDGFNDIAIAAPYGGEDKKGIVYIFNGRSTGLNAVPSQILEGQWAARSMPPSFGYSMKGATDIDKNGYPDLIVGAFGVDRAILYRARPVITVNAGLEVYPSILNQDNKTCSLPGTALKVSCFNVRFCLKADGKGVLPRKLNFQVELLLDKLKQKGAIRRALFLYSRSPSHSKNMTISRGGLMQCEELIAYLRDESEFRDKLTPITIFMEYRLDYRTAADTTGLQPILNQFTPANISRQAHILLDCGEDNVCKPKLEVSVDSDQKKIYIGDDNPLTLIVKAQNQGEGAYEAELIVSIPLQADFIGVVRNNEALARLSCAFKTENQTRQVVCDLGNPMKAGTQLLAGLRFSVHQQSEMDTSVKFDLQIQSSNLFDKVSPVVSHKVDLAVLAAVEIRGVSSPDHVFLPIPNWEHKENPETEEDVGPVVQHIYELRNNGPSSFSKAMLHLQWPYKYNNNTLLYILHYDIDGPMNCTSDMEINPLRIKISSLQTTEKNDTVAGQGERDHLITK
αvβ3, sequence (P06756 891-1048 partner limits assumed): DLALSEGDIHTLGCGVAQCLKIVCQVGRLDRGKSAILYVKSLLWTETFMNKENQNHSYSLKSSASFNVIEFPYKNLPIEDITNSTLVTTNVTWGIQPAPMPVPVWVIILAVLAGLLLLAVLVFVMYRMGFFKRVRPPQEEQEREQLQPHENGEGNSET
αvβ3, sequence (P05106 27-788): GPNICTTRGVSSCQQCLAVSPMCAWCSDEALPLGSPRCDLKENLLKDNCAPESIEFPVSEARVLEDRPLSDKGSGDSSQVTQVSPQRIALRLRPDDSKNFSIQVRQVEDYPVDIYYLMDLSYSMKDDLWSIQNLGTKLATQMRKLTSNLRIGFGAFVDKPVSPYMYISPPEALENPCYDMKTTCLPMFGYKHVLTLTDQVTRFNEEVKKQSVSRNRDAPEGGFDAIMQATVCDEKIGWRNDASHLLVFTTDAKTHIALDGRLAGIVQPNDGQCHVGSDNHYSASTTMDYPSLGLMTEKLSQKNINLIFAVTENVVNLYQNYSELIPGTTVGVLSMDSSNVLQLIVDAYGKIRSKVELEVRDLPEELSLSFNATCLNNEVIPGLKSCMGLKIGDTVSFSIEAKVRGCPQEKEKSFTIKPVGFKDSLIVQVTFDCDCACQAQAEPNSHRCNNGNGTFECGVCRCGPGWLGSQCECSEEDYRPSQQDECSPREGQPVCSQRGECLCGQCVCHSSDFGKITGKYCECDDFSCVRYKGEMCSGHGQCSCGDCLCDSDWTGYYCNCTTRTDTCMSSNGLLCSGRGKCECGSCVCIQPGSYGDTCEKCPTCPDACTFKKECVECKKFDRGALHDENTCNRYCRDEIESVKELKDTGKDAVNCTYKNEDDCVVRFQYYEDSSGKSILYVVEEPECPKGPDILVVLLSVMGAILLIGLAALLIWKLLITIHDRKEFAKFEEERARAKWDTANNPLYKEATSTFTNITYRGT

| Substance | cell adhesion remaining as compared to untreated control cells [%] |
| --- | --- |
| echi6-19: fragment of the RGDechi sequence (SEQ ID NO: 2) (MDDPGRNPHKGPAT) | 99.0 |
| RNPHKGPAT [echi 11-19] | 97.5 |
